Where a chain is given by its changes, count along the chain named.
B1: MYT0635 (antibody, V domains shown)
VH: QVQLVQSGAEVVKPGASVKISCKASGYTFTGYFMNWVKQSPGQSLEWIGRIHPYDGDTFYNQKFQGKATLTVDKSSNTAHMELLSLTSEDFAVYYCTRYDGSRAHDYWGQGTTVTVSS
VL: DIVLTQSPLSLAVSLGQPAIISCKASQSVSFAGTSLMHWYHQKPGQQPRLLIYRASNLEAGVPDRFSGSGSKTDFTLTISPVEAEDAATYYCQQSREYPYTFGGGTKLEIK
notes: IgG
B2: MYT1573 (antibody, V domains shown)
VH: B1 VH with H105M
VL: B1 VL with H38A
notes: IgG
B3: MYT1567 (antibody, V domains shown)
VH: B1 VH with H105M
VL: B1 VL with A32H
notes: IgG
B4: MYT1584 (antibody, V domains shown)
VH: B1 VH with H105M
VL: B1 VL with R96H
notes: IgG
B5: MYT1570 (antibody, V domains shown)
VH: B1 VH with H105M
VL: B1 VL with S35H
notes: IgG
B6: MYT1588 (antibody, V domains shown)
VH: B1 VH with H105M
VL: B1 VL with Y100H
notes: IgG
B7: MYT1156 (antibody, V domains shown)
VH: B1 VH with A24H, Y54H, F59H, H105M
VL: B1 VL
notes: IgG
B8: MYT1575 (antibody, V domains shown)
VH: B1 VH with H105M
VL: B1 VL with A55H
notes: IgG
B9: MYT1571 (antibody, V domains shown)
VH: B1 VH with H105M
VL: B1 VL with L36H
notes: IgG
B10: MYT1574 (antibody, V domains shown)
VH: B1 VH with H105M
VL: B1 VL with R54H
notes: IgG
B11: MYT1582 (antibody, V domains shown)
VH: B1 VH with H105M
VL: B1 VL with Q94H
notes: IgG
B12: MYT1580 (antibody, V domains shown)
VH: B1 VH with H105M
VL: B1 VL with A60H
notes: IgG
B13: MYT1563 (antibody, V domains shown)
VH: B1 VH with H105M
VL: B1 VL with S28H
notes: IgG
B14: MYT1589 (antibody, V domains shown)
VH: B1 VH with H105M
VL: B1 VL with T101H
notes: IgG
B15: MYT1565 (antibody, V domains shown)
VH: B1 VH with H105M
VL: B1 VL with S30H
notes: IgG
B16: MYT1583 (antibody, V domains shown)
VH: B1 VH with H105M
VL: B1 VL with S95H
notes: IgG
B17: MYT1158 (antibody, V domains shown)
VH: B1 VH with Y27H, Y54H, T58H, H105M
VL: B1 VL
notes: IgG
B18: MYT1157 (antibody, V domains shown)
VH: B1 VH with A24H, T58H, F59H, H105M
VL: B1 VL
notes: IgG
B19: MYT1160 (antibody, V domains shown)
VH: B1 VH with Y27H, T58H, F59H, H105M
VL: B1 VL
notes: IgG
B20: MYT1581 (antibody, V domains shown)
VH: B1 VH with H105M
VL: B1 VL with Q93H
notes: IgG
B21: MYT0636 (antibody, V domains shown)
VH: B1 VH with H105M, D106H
VL: B1 VL
notes: IgG
B22: MYT1579 (antibody, V domains shown)
VH: B1 VH with H105M
VL: B1 VL with E59H
notes: IgG
B23: MYT0637 (antibody, V domains shown)
VH: B1 VH with H105M, Y107H
VL: B1 VL
notes: IgG
B24: MYT1559 (antibody, V domains shown)
VH: B1 VH with H105M
VL: B1 VL with K24H
notes: IgG
B25: MYT1576 (antibody, V domains shown)
VH: B1 VH with H105M
VL: B1 VL with S56H
notes: IgG
B26: MYT1159 (antibody, V domains shown)
VH: B1 VH with Y27H, Y54H, F59H, H105M
VL: B1 VL
notes: IgG
B27: MYT1561 (antibody, V domains shown)
VH: B1 VH with H105M
VL: B1 VL with S26H
notes: IgG
B28: MYT1568 (antibody, V domains shown)
VH: B1 VH with H105M
VL: B1 VL with G33H
notes: IgG
B29: MYT1586 (antibody, V domains shown)
VH: B1 VH with H105M
VL: B1 VL with Y98H
notes: IgG
B30: MYT1569 (antibody, V domains shown)
VH: B1 VH with H105M
VL: B1 VL with T34H
notes: IgG
B31: MYT1562 (antibody, V domains shown)
VH: B1 VH with H105M
VL: B1 VL with Q27H
notes: IgG
B32: MYT1585 (antibody, V domains shown)
VH: B1 VH with H105M
VL: B1 VL with E97H
notes: IgG
B33: MYT1155 (antibody, V domains shown)
VH: B1 VH with A24H, Y54H, T58H, H105M
VL: B1 VL
notes: IgG
B34: MYT1566 (antibody, V domains shown)
VH: B1 VH with H105M
VL: B1 VL with F31H
notes: IgG
B35: MYT1578 (antibody, V domains shown)
VH: B1 VH with H105M
VL: B1 VL with L58H
notes: IgG
B36: MYT1577 (antibody, V domains shown)
VH: B1 VH with H105M
VL: B1 VL with N57H
notes: IgG
B37: MYT2225 (antibody, V domains shown)
VH: EVQLVESGGGLVQPGGSLRLSCAASHFNIRTQSIHWVRQAPGKGLEWIGDIFPIDGITDYADSVKGRFTISADTSKNTAYLQMNSLRAEDTAVYYCARGSWSWPSGMDYYLDYWGQGTLVTVSS
VL: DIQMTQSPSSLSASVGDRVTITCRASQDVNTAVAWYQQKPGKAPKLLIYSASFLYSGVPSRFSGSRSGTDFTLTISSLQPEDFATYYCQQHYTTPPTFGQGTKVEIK
notes: IgG
B38: MYT2234 (antibody, V domains shown)
VH: B37 VH with H26G, H35A
VL: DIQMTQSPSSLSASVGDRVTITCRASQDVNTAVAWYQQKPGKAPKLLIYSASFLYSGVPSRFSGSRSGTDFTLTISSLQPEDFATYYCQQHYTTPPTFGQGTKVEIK
notes: IgG
B39: MYT2235 (antibody, V domains shown)
VH: B37 VH with H26G, D50H
VL: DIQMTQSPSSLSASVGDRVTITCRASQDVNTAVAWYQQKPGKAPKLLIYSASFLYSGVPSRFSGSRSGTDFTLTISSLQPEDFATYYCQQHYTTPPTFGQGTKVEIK
notes: IgG
B40: MYT2226 (antibody, V domains shown)
VH: B37 VH with H26G, F27H
VL: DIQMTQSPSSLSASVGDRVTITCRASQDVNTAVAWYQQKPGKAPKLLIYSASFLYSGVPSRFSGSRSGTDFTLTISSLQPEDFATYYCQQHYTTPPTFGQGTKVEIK
notes: IgG
B41: MYT2227 (antibody, V domains shown)
VH: B37 VH with H26G, N28H
VL: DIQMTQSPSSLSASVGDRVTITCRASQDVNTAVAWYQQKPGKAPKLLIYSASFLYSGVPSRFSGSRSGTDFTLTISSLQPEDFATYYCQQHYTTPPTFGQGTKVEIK
notes: IgG
B42: MYT2228 (antibody, V domains shown)
VH: B37 VH with H26G, I29H
VL: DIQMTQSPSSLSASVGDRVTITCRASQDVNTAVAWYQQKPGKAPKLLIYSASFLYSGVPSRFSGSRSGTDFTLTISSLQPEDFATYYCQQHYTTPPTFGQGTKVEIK
notes: IgG
B43: MYT2233 (antibody, V domains shown)
VH: B37 VH with H26G, I34H
VL: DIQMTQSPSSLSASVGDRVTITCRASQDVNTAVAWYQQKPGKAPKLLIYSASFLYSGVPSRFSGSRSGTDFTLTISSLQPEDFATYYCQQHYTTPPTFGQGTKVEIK
notes: IgG
B44: MYT2236 (antibody, V domains shown)
VH: B37 VH with H26G, I51H
VL: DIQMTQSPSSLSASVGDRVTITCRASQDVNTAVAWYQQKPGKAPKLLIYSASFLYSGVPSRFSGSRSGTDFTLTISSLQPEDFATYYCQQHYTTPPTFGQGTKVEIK
notes: IgG
B45: MYT2232 (antibody, V domains shown)
VH: B37 VH with H26G, S33H
VL: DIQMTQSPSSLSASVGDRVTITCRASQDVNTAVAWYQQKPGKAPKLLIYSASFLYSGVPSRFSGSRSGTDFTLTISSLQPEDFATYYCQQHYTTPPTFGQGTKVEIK
notes: IgG
B46: MYT2229 (antibody, V domains shown)
VH: B37 VH with H26G, R30H
VL: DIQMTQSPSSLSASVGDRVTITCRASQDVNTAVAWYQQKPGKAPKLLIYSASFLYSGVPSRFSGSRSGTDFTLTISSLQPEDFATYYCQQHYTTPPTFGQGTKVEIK
notes: IgG
B47: MYT2231 (antibody, V domains shown)
VH: B37 VH with H26G, Q32H
VL: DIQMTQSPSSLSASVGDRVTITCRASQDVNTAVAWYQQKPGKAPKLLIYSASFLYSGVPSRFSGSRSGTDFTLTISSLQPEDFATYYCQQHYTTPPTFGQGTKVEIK
notes: IgG
B48: MYT2230 (antibody, V domains shown)
VH: B37 VH with H26G, T31H
VL: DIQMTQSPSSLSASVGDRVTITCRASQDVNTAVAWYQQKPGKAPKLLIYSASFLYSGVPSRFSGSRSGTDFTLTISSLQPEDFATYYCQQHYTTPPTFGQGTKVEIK
notes: IgG

Biological target: T1, FOLR1 (R&D Systems, Cat #5646-FR) (human, UniProt P15328 25-233)
T1 construct: Bought soluble protein; also called Folate Receptor 1
T1 sequence (P15328 25-233 limits assumed): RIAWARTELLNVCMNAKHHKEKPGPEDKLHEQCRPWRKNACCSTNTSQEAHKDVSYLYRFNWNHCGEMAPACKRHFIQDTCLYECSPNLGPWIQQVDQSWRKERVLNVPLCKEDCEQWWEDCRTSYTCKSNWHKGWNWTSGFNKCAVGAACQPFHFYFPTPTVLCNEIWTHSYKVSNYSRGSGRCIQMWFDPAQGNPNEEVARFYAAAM
Test: BLI, IgG on anti-human Fc sensor, 50 nM FOLR1

Binding result, binds:
B1, B2, B3, B4, B5, B6, B7, B8, B9, B10, B11, B12, B13, B14, B15, B16, B17, B18, B19, B20, B21, B22, B23, B24, B25, B26, B27, B28, B29, B30, B31, B32, B33, B34, B35, B36, B37, B38, B39, B40, B41, B42, B43, B44, B45, B46, B47, B48
